Values of other authors as cited in patent publication US10316097B2, “Method for the treatment of epilepsy, epileptogenesis, seizures or convulsions by an anti-colony-stimulating factor 1 receptor (CSF-1R) antibody” (UCB BIOPHARMA SPRL, priority 2015, dated 2019).

How the values were obtained:
[1] = systemic administration in rodents
[2] = test system: TNF-α-driven inflammation in the brain; conditions: systemic administration in rodents

Which “Crossing of the blood-brain barrier (BBB)” value [1] does the source give for etanercept here?
The value was “does not cross the blood-brain barrier”.

And the “Effect on TNF-α-driven inflammation in the brain” value [2]?
Its value is “does not affect”.
